The source of these data is US20250066499A1 (SUNSHINE GUOJIAN PHARMACEUTICAL SHANGHAI, published 2025).

One assay deals with T1, CD73-ND-L181A (human, UniProt P21589 27-317).
T1 construct: Alanine mutant of CD73-ND
T1 sequence: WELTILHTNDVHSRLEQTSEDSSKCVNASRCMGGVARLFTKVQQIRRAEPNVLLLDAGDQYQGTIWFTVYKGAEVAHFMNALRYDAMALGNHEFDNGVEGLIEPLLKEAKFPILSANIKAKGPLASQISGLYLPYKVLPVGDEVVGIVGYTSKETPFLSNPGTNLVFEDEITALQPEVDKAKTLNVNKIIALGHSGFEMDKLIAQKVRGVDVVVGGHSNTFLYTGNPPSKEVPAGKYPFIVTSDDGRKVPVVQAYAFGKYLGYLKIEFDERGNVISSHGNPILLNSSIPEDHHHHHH
The experiment in a line: ELISA; decline multiple of Top against CD73-ND. The procedure: (§1) The ELISA plates were coated with SA protein diluted to 1.5 μg/mL in coating buffer (50 mM carbonate coating buffer, pH 9.6) and incubated overnight at 4° C. The supernatant was discarded, and the plates were washed three times with PBST. Then, 5% skimmed milk powder prepared with PBS was added for blocking and the plates were incubated for 2 h at 37° C. After washing the plates once with PBST, CD73-biotin protein (prepared by biotinylating CD73-His protein according to the EZ-Link NHS-Biotin Reagent instructions) was diluted to 0.5 μg/mL and added at 100 μL/well for incubation at room temperature for 1 h. The plates were washed three times with PBST, and the prepared murine-derived monoclonal antibodies against human CD73 were serially diluted with 1% BSA buffer prepared with PBST and added to the ELISA plates at 100 μl/well. The plates were incubated at 37° C. for 1 h. After washing the plates three times with PBST, HRP-labeled goat anti-mouse IgG secondary antibody was added and the plates were incubated for 30 min at 37° C. After washing the plates three times with PBST, the residual droplets were patted dry on absorbent paper as much as possible. Then, 100 μl of TMB color developing solution was added to each well, and the plates were incubated in the dark at room temperature for 5 min for color development. Subsequently, 50 μl of 2M H₂SO₄ stop solution was added to each well to terminate the substrate reaction. The OD values were read at 450 nm using a multimode microplate reader to analyze the binding ability of the tested antibodies to the target antigen human CD73-His.
(§2) Referring to the experimental method in Example 3, the affinity of 48A11-HuV33 for various mutant proteins of CD73-ND was determined. The SA protein was diluted to 1 μg/mL for coating the ELISA plates, and the biotinylated CD73 protein (CD73-biotin) was used at a concentration of 0.1 μg/mL.

For another assay, the target named is T2, CD73-ND-T183A (human, UniProt P21589 27-317).
T2 construct: Alanine mutant of CD73-ND
T2 sequence: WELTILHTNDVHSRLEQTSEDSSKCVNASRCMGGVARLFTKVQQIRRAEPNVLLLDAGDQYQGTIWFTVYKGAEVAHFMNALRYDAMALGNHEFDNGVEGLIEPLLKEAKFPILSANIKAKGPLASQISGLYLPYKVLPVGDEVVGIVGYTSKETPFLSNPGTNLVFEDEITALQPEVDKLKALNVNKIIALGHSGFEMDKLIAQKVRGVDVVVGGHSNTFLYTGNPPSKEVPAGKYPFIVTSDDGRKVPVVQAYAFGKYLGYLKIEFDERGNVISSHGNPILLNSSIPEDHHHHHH
The experiment in a line: ELISA; decline multiple of Top against CD73-ND. As to the method:
as §1, §2

The next assay concerns the target T3, CD73-ND-K180A (human, UniProt P21589 27-317).
T3 construct: Alanine mutant of CD73-ND
T3 sequence: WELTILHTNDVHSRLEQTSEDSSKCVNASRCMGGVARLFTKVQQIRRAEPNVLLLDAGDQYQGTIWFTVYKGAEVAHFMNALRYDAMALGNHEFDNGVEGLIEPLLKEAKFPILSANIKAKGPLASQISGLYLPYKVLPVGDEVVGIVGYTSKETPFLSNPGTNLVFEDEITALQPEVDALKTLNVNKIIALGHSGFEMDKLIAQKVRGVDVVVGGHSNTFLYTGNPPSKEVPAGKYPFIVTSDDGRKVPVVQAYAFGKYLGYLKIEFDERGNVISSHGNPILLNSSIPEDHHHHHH
The experiment in a line: ELISA, high plateau value (OD 450 nm). The procedure:
as §1, §2

For the next assay, the target named is T4, CD73-ND-K182A (human, UniProt P21589 27-317).
T4 construct: Alanine mutant of CD73-ND
T4 sequence: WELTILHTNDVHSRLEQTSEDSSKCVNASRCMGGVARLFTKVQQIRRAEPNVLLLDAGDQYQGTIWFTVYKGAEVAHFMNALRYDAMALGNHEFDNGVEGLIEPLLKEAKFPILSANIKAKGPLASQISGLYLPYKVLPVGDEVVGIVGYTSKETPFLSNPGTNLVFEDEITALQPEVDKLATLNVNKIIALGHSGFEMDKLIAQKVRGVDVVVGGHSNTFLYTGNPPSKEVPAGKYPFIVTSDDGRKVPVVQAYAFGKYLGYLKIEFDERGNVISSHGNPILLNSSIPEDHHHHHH
The experiment in a line: ELISA, high plateau value (OD 450 nm). The procedure: as §1, §2

The next assay deals with T5, CD73-ND-V144A (human, UniProt P21589 27-317).
T5 construct: Alanine mutant of CD73-ND
T5 sequence: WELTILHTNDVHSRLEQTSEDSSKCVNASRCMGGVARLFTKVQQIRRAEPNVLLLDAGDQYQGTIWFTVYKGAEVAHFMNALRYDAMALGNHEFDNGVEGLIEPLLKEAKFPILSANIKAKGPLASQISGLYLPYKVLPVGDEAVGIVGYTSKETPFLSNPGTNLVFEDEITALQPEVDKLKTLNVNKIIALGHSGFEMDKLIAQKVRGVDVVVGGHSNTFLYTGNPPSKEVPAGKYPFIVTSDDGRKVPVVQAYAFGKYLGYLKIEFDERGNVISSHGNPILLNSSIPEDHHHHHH
The experiment in a line: ELISA, high plateau value (OD 450 nm). The procedure:
as §1, §2

For the next assay, the target named is T6, CD73-ND-E143A (human, UniProt P21589 27-317).
T6 construct: Alanine mutant of CD73-ND
T6 sequence: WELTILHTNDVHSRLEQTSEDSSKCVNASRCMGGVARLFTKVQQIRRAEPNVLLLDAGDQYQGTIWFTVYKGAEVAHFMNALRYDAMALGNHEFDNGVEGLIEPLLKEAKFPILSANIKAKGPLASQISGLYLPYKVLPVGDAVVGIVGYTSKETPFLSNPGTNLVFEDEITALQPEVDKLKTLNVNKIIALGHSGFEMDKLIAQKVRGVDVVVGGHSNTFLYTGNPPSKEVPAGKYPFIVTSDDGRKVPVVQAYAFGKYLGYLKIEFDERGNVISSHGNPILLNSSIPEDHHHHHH
The experiment in a line: ELISA, high plateau value (OD 450 nm). The procedure:
as §1, §2

B1: 48A11-HuV33 (antibody, human IgG4, V domains shown)
VH: QVQLVQSGAEVKKPGASVKVSCKASGYTFTSYWMHWVRQAPGQGLEWIGEINPSIGRTNYNEKFKSRVTLTRDTSTSTAYMELSSLRSEDTAVYYCARRVYGTMDYWGQGTLVTVSS
VL: DIQMTQSPSSLSASVGDRVTITCKASQDINSYLSWFQQKPGKSPKLLIYRANIWVDGVPSRFSGSGSGQDYTFTISSLQPEDIATYYCLQYDELYTFGQGTKVEIK
notes: Humanized
Take B1: the “Ratio(Top)” value with CD73-ND-L181A worked out at 1.9 fold; in the assay with CD73-ND-T183A, 1 fold. Further, the Top in the assay with CD73-ND-K180A is 1.74; with CD73-ND-K182A it was 2.03; with CD73-ND-V144A it was 1.69; with CD73-ND-E143A, 1.77.
